These are literature values, as cited in publication PMC6136702.

The data set addresses EGFR (Homo sapiens) (UniProt P00533).

As to EGF (from UniProt P01133), the Kd was 0.2 nM.
